± gives the uncertainty stated by the source.
Assay: self-splicing fitness, log relative to wild type (ln ratio); higher = more splicing; Tetrahymena group I intron in knt gene, E. coli kanamycin selection, DiMSum; sequences stand for … in CUCUCU…GGAGGGAAAAGUUAUCAGGCAUGCACCUGGUAGCUAGUCUUUAAACCAAUAGAUUGCAUCGGUUUAAAAGGCAAGACCGUCAAAUUGCGGGAAAGGGGUCAACAGCCGUUCAGUACCAAGUCUCAGGGGAAACUUUGAGAUGGCCUUGCAAAGGGUAUGGUAAUAAGCUGACGGACAUGGUCCUAACCACGCAGCCAAGUCCUAAGUCAACAGAUCUUCUGUUGAUAUGGAUGCAGUUCACAGACUAAAUGUCGGUCGGGGAAGAUGUAUUCUUCUCAUAAGAUAUAGUCGGACCUCUCCUUAAUGGGAGCUAGCGGAUGAAGUGAUGCAACACUGGAGCCGCUGGGAACUAAUUUGUAUGCGAAAGUAUAUUGAUUAGUUUUGGAGUACUCGUGGUCG
Summary of the method: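 Pooled colonies went to amplicon sequencing on an Illumina HiSeq 2500 after six replicate transformations. The plates were LB agar with 100 μg/mL carbenicillin, 50 μM IPTG and 0.2% rhamnose, with or without 25 μg/mL kanamycin, incubated overnight at 37°C or 30°C. The E. coli BL21(DE3) library had all eight P1ex-region intron nucleotides randomised, the intron placed in the knt kanamycin-resistance gene on pET-22b(+). DiMSum fitness is the error-weighted combination of replicate fold changes, kanamycin against none, normalised to wild type.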

| Sequence | self-splicing fitness (ln) (30 °C) | self-splicing fitness (ln) (37 °C) |
| --- | --- | --- |
| AUAAAGCAAUAUUACGAGAG | -2.29 ± 0.18 | -1.03 ± 0.15 |
| CGUAAGCAAUAUUACGAAGG | -1.78 ± 0.12 | -1.16 ± 0.2 |
| GCGUAGCAAUAUUACGCGGC | -2.64 ± 0.27 | -2.08 ± 0.46 |
| UGACAGCAAUAUUACGACCC | -1.52 ± 0.2 | -1.01 ± 0.25 |
| CGUGAGCAAUAUUACGACCU | -1.34 ± 0.28 | -1.17 ± 0.3 |
| CUCGAGCAAUAUUACGCUAC | -0.697 ± 0.2 | – |
| AGCCAGCAAUAUUACGCCAA | -3.36 ± 0.19 | -1.75 ± 0.17 |
| CAUGAGCAAUAUUACGGCAA | -2.43 ± 0.17 | -2.02 ± 0.28 |
| UAUAAGCAAUAUUACGACAU | -1.09 ± 0.014 | -0.413 ± 0.033 |
| CAGAAGCAAUAUUACGACCU | -2.86 ± 0.4 | 0.0264 ± 0.23 |
| CGGCAGCAAUAUUACGAAAA | -2.23 ± 0.26 | -2.21 ± 0.37 |
| ACAAAGCAAUAUUACGGGUA | -1.86 ± 0.09 | -0.94 ± 0.087 |
| ACCGAGCAAUAUUACGCCCG | -2.05 ± 0.29 | -1.28 ± 0.33 |
| GUACAGCAAUAUUACGAUUC | -0.318 ± 0.075 | -0.0725 ± 0.11 |
| UUGCAGCAAUAUUACGGCUG | -3.43 ± 0.3 | -2.59 ± 0.24 |
| UAUCAGCAAUAUUACGCGCG | 0.181 ± 0.08 | -0.0803 ± 0.1 |
| CAAUAGCAAUAUUACGAUAG | -0.926 ± 0.069 | -0.00227 ± 0.1 |
| AAGCAGCAAUAUUACGUGUC | -2.94 ± 0.15 | -2.01 ± 0.15 |
| UGCGAGCAAUAUUACGGACG | -1.24 ± 0.15 | -1.19 ± 0.17 |
| GGCAAGCAAUAUUACGGGAA | -1.34 ± 0.12 | -1.16 ± 0.13 |
| GUCAAGCAAUAUUACGUGAA | -1.01 ± 0.072 | 0.556 ± 0.083 |
| GCACAGCAAUAUUACGAUUG | -2.27 ± 0.077 | -0.657 ± 0.083 |
| ACAAAGCAAUAUUACGUCAA | -3.26 ± 0.25 | -1.66 ± 0.14 |
| CGUAAGCAAUAUUACGCAUC | – | -2.03 ± 0.26 |
| CACGAGCAAUAUUACGUCGA | -2.23 ± 0.35 | -2.81 ± 0.26 |
| UACUAGCAAUAUUACGUUAU | -3.58 ± 0.18 | -1.45 ± 0.14 |

| Sequence | self-splicing fitness (ln) (30 °C) | self-splicing fitness (ln) (37 °C) |
| --- | --- | --- |
| GGAUAGCAAUAUUACGUUUA | -1.02 ± 0.16 | 0.714 ± 0.14 |
| AAGGAGCAAUAUUACGCCGU | -1.14 ± 0.27 | -1.16 ± 0.37 |
| CUGGAGCAAUAUUACGUAUG | -1.78 ± 0.12 | -0.437 ± 0.14 |
| UGGGAGCAAUAUUACGCUUA | -2.55 ± 0.11 | -0.767 ± 0.098 |
| UCUUAGCAAUAUUACGUGCG | -2.14 ± 0.15 | -1.67 ± 0.2 |
| ACACAGCAAUAUUACGCGCC | -0.614 ± 0.11 | -1.13 ± 0.1 |
| CAAGAGCAAUAUUACGCACA | -2.72 ± 0.36 | -1.53 ± 0.43 |
| AGUGAGCAAUAUUACGCCAG | – | -2.12 ± 0.45 |
| CAUUAGCAAUAUUACGGUGC | -4.19 ± 0.31 | -2.34 ± 0.3 |
| GAGCAGCAAUAUUACGUGCG | -1.65 ± 0.12 | -1.25 ± 0.11 |
| AAAUAGCAAUAUUACGCCGA | -2.41 ± 0.19 | -0.837 ± 0.17 |
| GAUUAGCAAUAUUACGGAUC | -2.71 ± 0.4 | -2.18 ± 0.32 |
| CACGAGCAAUAUUACGAUUU | -3.18 ± 0.18 | -1.99 ± 0.13 |
| AAUAAGCAAUAUUACGACCA | -0.614 ± 0.18 | 0.141 ± 0.29 |
| AUCCAGCAAUAUUACGACUU | 0.167 ± 0.074 | 0.32 ± 0.086 |
| ACCUAGCAAUAUUACGUGCU | -2.56 ± 0.092 | -1.31 ± 0.098 |
| GAACAGCAAUAUUACGAACA | -0.908 ± 0.1 | -0.166 ± 0.12 |
| GUGAAGCAAUAUUACGGAGG | -2.3 ± 0.23 | -2.49 ± 0.41 |
| UGUCAGCAAUAUUACGGCGC | -2.76 ± 0.21 | -1.65 ± 0.19 |
| AAUGAGCAAUAUUACGAUCU | -0.572 ± 0.074 | -0.195 ± 0.1 |
| AGCAAGCAAUAUUACGUAGC | -3.34 ± 0.18 | -2.45 ± 0.19 |
| CCCGAGCAAUAUUACGCAGC | – | -2.05 ± 0.42 |
| UAGUAGCAAUAUUACGCGGG | -4.02 ± 0.34 | -2.49 ± 0.39 |
| UACAAGCAAUAUUACGGCGU | -1.14 ± 0.11 | -0.846 ± 0.098 |
| AGCAAGCAAUAUUACGAUCU | -0.189 ± 0.052 | 0.631 ± 0.077 |
| AUUCAGCAAUAUUACGCGGA | -1.73 ± 0.19 | -0.735 ± 0.14 |

| Sequence | self-splicing fitness (ln) (30 °C) | self-splicing fitness (ln) (37 °C) |
| --- | --- | --- |
| UAGGAGCAAUAUUACGAAAG | – | -1.17 ± 0.23 |
| CUAUAGCAAUAUUACGGUGG | -3.27 ± 0.24 | -2.22 ± 0.25 |
| GUCGAGCAAUAUUACGGUGU | -1.98 ± 0.087 | -1.14 ± 0.11 |
| AGACAGCAAUAUUACGCGUC | -3.19 ± 0.29 | -2.08 ± 0.24 |
| CCGAAGCAAUAUUACGUGAG | -1 ± 0.065 | -0.698 ± 0.084 |
| ACUCAGCAAUAUUACGGAUA | -0.808 ± 0.15 | -0.834 ± 0.16 |
| ACGUAGCAAUAUUACGUAGA | -3.58 ± 0.42 | -2.86 ± 0.41 |
| UCUAAGCAAUAUUACGCCAC | -2.44 ± 0.36 | -3.11 ± 0.35 |
| AAAGAGCAAUAUUACGGCUU | -1.05 ± 0.11 | -0.397 ± 0.14 |
| ACUUAGCAAUAUUACGAAAC | -3.64 ± 0.32 | -1.65 ± 0.24 |
| CUGUAGCAAUAUUACGCGGU | -3.17 ± 0.23 | -2.33 ± 0.24 |
| UCUCAGCAAUAUUACGAGUA | -1.35 ± 0.066 | -0.132 ± 0.077 |
| CGUAAGCAAUAUUACGGCAG | -0.537 ± 0.091 | -0.781 ± 0.095 |
| GCUCAGCAAUAUUACGCGCC | -2.16 ± 0.14 | -1.92 ± 0.17 |
| CACAAGCAAUAUUACGAUUU | -4.17 ± 0.18 | -2.56 ± 0.15 |
| CCGUAGCAAUAUUACGAGUG | -1.07 ± 0.069 | -0.807 ± 0.083 |
| GUGAAGCAAUAUUACGAGAA | -1.97 ± 0.13 | -0.33 ± 0.13 |
| GGAGAGCAAUAUUACGAGCG | – | -1.86 ± 0.37 |
| UGUUAGCAAUAUUACGAGAG | -3.33 ± 0.33 | -3.15 ± 0.27 |
| AGAUAGCAAUAUUACGGACU | 0.201 ± 0.1 | -0.666 ± 0.093 |
| UGUUAGCAAUAUUACGCGAC | -3.75 ± 0.4 | -1.59 ± 0.5 |
| CGUCAGCAAUAUUACGUAUC | -3.54 ± 0.19 | -2.06 ± 0.19 |
| GAACAGCAAUAUUACGGUCA | -0.702 ± 0.062 | -1.05 ± 0.066 |
| CAAUAGCAAUAUUACGACGA | -2.18 ± 0.22 | -1.24 ± 0.14 |
| GUUGAGCAAUAUUACGGCUA | -0.763 ± 0.18 | -0.798 ± 0.19 |

Source: the supplement of paper PMC7877785
